The source of these data is article PMC3113324, “AKAP5 and AKAP12 Form Homo-oligomers” (Journal of Molecular Signaling, 2011).

For orientation: stoichiometry N means the number of molecules, sites or subunits per partner or assembly.

The data set deals with the molecule itself. The data set can be described thus: SDS-PAGE (SDS-resistant oligomers); whole-cell lysates of HEK293 cells on SDS-PAGE without urea; immunoblot with anti-HA or anti-AKAP12; cells also treated with isoproterenol (10 uM, 0, 5, 30 min), KT5720, PD98059 or Rolipram (45 min).

B1: HA-AKAP12 (840-1782) (domain or fragment, human, UniProt Q02952 840-1782, looked up)
chain: DSDVPAVVPLSEYDAVEREKMEAQQAQKSAEQPEQKAATEVSKELSESQVHMMAAAVADGTRAATIIEERSPSWISASVTEPLEQVEAEAALLTEEVLEREVIAEEEPPTVTEPLPENREARGDTVVSEAELTPEAVTAAETAGPLGAEEGTEASAAEETTEMVSAVSQLTDSPDTTEEATPVQEVEGGVPDIEEQERRTQEVLQAVAEKVKEESQLPGTGGPEDVLQPVQRAEAERPEEQAEASGLKKETDVVLKVDAQEAKTEPFTQGKVVGQTTPESFEKAPQVTESIESSELVTTCQAETLAGVKSQEMVMEQAIPPDSVETPTDSETDGSTPVADFDAPGTTQKDEIVEIHEENEVASGTQSGGTEAEAVPAQKERPPAPSSFVFQEETKEQSKMEDTLEHTDKEVSVETVSILSKTEGTQEADQYADEKTKDVPFFEGLEGSIDTGITVSREKVTEVALKGEGTEEAECKKDDALELQSHAKSPPSPVEREMVVQVEREKTEAEPTHVNEEKLEHETAVTVSEEVSKQLLQTVNVPIIDGAKEVSSLEGSPPPCLGQEEAVCTKIQVQSSEASFTLTAAAEEEKVLGETANILETGETLEPAGAHLVLEEKSSEKNEDFAAHPGEDAVPTGPDCQAKSTPVIVSATTKKGLSSDLEGEKTTSLKWKSDEVDEQVACQEVKVSVAIEDLEPENGILELETKSSKLVQNIIQTAVDQFVRTEETATEMLTSELQTQAHVIKADSQDAGQETEKEGEEPQASAQDETPITSAKEESESTAVGQAHSDISKDMSEASEKTMTVEVEGSTVNDQQLEEVVLPSEEEGGGAGTKSVPEDDGHALLAERIEKSLVEPKEDEKGDDVDDPENQNSALADTDASGGLTKESPDTNGPKQKEKEDAQEVELQEGKVHSESDKAITPQAQEELQKQERESAKSELTES
notes: AKAP12, human, C-terminal fragment, residues 840-1782; also called AKAP12 C-terminal (840-1782) fragment; source: HEK293, transfected (pcDNA3.1), in whole-cell lysate
For B1, the “stoichiometry N” value is 2.

B2: HA-AKAP12M3 (S627A, S696-698A, S772A) (natural protein, human, UniProt Q02952 1-1782, looked up)
chain: MGAGSSTEQRSPEQPPEGSSTPAEPEPSGGGPSAEAAPDTTADPAIAASDPATKLLQKNGQLSTINGVAEQDELSLQEGDLNGQKGALNGQGALNSQEEEEVIVTEVGQRDSEDVSKRDSDKEMATKSAVVHDITDDGQEETPEIIEQIPSSESNLEELTQPTESQANDIGFKKVFKFVGFKFTVKKDKTEKPDTVQLLTVKKDEGEGAAGAGDHKDPSLGAGEAASKESEPKQSTEKPEETLKREQSHAEISPPAESGQAVEECKEEGEEKQEKEPSKSAESPTSPVTSETGSTFKKFFTQGWAGWRKKTSFRKPKEDEVEASEKKKEQEPEKVDTEEDGKAEVASEKLTASEQAHPQEPAESAHEPRLSAEYEKVELPSEEQVSGSQGPSEEKPAPLATEVFDEKIEVHQEEVVAEVHVSTVEERTEEQKTEVEETAGSVPAEELVEMDAEPQEAEPAKELVKLKETCVSGEDPTQGADLSPDEKVLSKPPEGVVSEVEMLSSQERMKVQGSPLKKLFTSTGLKKLSGKKQKGKRGGGDEESGEHTQVPADSPDSQEEQKGESSASSPEEPEEITCLEKGLAEVQQDGEAEEGATSDGEKKREGVTPWASFKKMVTPKKRVRRPAESDKEDELDKVKSATLSSTESTASEMQEEMKGSVEEPKPEEPKRKVDTSVSWEALICVGSSKKRARRGAAADEEGGPKAMGGDHQKADEAGKDKETGTDGILAGSQEHDPGQGSSSPEQAGSPTEGEGVSTWESFKRLVTPRKKAKSKLEEKSEDSIAGSGVEHSTPDTEPGKEESWVSIKKFIPGRRKKRPDGKQEQAPVEDAGPTGANEDDSDVPAVVPLSEYDAVEREKMEAQQAQKSAEQPEQKAATEVSKELSESQVHMMAAAVADGTRAATIIEERSPSWISASVTEPLEQVEAEAALLTEEVLEREVIAEEEPPTVTEPLPENREARGDTVVSEAELTPEAVTAAETAGPLGAEEGTEASAAEETTEMVSAVSQLTDSPDTTEEATPVQEVEGGVPDIEEQERRTQEVLQAVAEKVKEESQLPGTGGPEDVLQPVQRAEAERPEEQAEASGLKKETDVVLKVDAQEAKTEPFTQGKVVGQTTPESFEKAPQVTESIESSELVTTCQAETLAGVKSQEMVMEQAIPPDSVETPTDSETDGSTPVADFDAPGTTQKDEIVEIHEENEVASGTQSGGTEAEAVPAQKERPPAPSSFVFQEETKEQSKMEDTLEHTDKEVSVETVSILSKTEGTQEADQYADEKTKDVPFFEGLEGSIDTGITVSREKVTEVALKGEGTEEAECKKDDALELQSHAKSPPSPVEREMVVQVEREKTEAEPTHVNEEKLEHETAVTVSEEVSKQLLQTVNVPIIDGAKEVSSLEGSPPPCLGQEEAVCTKIQVQSSEASFTLTAAAEEEKVLGETANILETGETLEPAGAHLVLEEKSSEKNEDFAAHPGEDAVPTGPDCQAKSTPVIVSATTKKGLSSDLEGEKTTSLKWKSDEVDEQVACQEVKVSVAIEDLEPENGILELETKSSKLVQNIIQTAVDQFVRTEETATEMLTSELQTQAHVIKADSQDAGQETEKEGEEPQASAQDETPITSAKEESESTAVGQAHSDISKDMSEASEKTMTVEVEGSTVNDQQLEEVVLPSEEEGGGAGTKSVPEDDGHALLAERIEKSLVEPKEDEKGDDVDDPENQNSALADTDASGGLTKESPDTNGPKQKEKEDAQEVELQEGKVHSESDKAITPQAQEELQKQERESAKSELTES
notes: AKAP12, human, with alanine substitution of the protein kinase A phosphorylation sites; source: HEK293, transfected (pcDNA3.1), in whole-cell lysate
B2: the “stoichiometry N” value is 2.

B3: HA-AKAP12 (1-938) (domain or fragment, human, UniProt Q02952 1-938, looked up)
chain: MGAGSSTEQRSPEQPPEGSSTPAEPEPSGGGPSAEAAPDTTADPAIAASDPATKLLQKNGQLSTINGVAEQDELSLQEGDLNGQKGALNGQGALNSQEEEEVIVTEVGQRDSEDVSKRDSDKEMATKSAVVHDITDDGQEETPEIIEQIPSSESNLEELTQPTESQANDIGFKKVFKFVGFKFTVKKDKTEKPDTVQLLTVKKDEGEGAAGAGDHKDPSLGAGEAASKESEPKQSTEKPEETLKREQSHAEISPPAESGQAVEECKEEGEEKQEKEPSKSAESPTSPVTSETGSTFKKFFTQGWAGWRKKTSFRKPKEDEVEASEKKKEQEPEKVDTEEDGKAEVASEKLTASEQAHPQEPAESAHEPRLSAEYEKVELPSEEQVSGSQGPSEEKPAPLATEVFDEKIEVHQEEVVAEVHVSTVEERTEEQKTEVEETAGSVPAEELVEMDAEPQEAEPAKELVKLKETCVSGEDPTQGADLSPDEKVLSKPPEGVVSEVEMLSSQERMKVQGSPLKKLFTSTGLKKLSGKKQKGKRGGGDEESGEHTQVPADSPDSQEEQKGESSASSPEEPEEITCLEKGLAEVQQDGEAEEGATSDGEKKREGVTPWASFKKMVTPKKRVRRPSESDKEDELDKVKSATLSSTESTASEMQEEMKGSVEEPKPEEPKRKVDTSVSWEALICVGSSKKRARRGSSSDEEGGPKAMGGDHQKADEAGKDKETGTDGILAGSQEHDPGQGSSSPEQAGSPTEGEGVSTWESFKRLVTPRKKSKSKLEEKSEDSIAGSGVEHSTPDTEPGKEESWVSIKKFIPGRRKKRPDGKQEQAPVEDAGPTGANEDDSDVPAVVPLSEYDAVEREKMEAQQAQKSAEQPEQKAATEVSKELSESQVHMMAAAVADGTRAATIIEERSPSWISASVTEPLEQVEAEAALLTEEVLE
notes: AKAP12, human, N-terminal fragment, residues 1-938; also called AKAP12 N-terminal (1-938) fragment; source: HEK293, transfected (pcDNA3.1), in whole-cell lysate
As to B3, the “stoichiometry N” value turned out to be 2.
